# Experimental data: the supplement of paper PMC9876800
# Test system: peptide library, one residue held at a place counted from the S/T acceptor
# Experiment: relative phosphorylation of the sub-library (ratio to the mean residue at this position); human; higher = residue favoured
# Settings: R fixed; at +1
# Summary of the method: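 Human or orthologue kinase constructs, purified and recombinant, were incubated under kinase-specific conditions in 384-well plates with biotinylated degenerate peptide sub-libraries. Each sub-library fixed one residue at one position around a central Ser/Thr. Incubations lasted 90 min with peptides at 50 μM and 50 μM ATP spiked with γ-32P-ATP, after which spots on streptavidin membranes were phosphorimaged and quantified by densitometry. Relative sub-library phosphorylation is a ratio to the mean residue at that position.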
# Sequence of GRK7, construct: Full length (Q8WTQ7 whole entry, looked up): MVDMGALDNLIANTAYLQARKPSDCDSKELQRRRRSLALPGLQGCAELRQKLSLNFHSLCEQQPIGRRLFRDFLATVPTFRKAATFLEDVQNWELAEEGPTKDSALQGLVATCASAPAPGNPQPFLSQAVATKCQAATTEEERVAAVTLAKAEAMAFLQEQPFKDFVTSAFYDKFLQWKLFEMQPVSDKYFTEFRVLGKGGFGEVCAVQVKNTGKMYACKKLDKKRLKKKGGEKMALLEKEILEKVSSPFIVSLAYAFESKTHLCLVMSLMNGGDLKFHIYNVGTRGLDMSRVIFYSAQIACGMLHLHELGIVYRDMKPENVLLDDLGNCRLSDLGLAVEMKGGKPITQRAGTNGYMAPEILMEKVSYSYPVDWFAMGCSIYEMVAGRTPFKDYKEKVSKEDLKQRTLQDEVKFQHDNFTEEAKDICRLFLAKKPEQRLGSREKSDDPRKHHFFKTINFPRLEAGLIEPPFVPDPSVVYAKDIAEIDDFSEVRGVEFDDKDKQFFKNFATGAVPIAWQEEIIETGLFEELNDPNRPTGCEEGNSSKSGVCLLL
# Sequence of GRK2, construct: Full length (P25098 whole entry, looked up): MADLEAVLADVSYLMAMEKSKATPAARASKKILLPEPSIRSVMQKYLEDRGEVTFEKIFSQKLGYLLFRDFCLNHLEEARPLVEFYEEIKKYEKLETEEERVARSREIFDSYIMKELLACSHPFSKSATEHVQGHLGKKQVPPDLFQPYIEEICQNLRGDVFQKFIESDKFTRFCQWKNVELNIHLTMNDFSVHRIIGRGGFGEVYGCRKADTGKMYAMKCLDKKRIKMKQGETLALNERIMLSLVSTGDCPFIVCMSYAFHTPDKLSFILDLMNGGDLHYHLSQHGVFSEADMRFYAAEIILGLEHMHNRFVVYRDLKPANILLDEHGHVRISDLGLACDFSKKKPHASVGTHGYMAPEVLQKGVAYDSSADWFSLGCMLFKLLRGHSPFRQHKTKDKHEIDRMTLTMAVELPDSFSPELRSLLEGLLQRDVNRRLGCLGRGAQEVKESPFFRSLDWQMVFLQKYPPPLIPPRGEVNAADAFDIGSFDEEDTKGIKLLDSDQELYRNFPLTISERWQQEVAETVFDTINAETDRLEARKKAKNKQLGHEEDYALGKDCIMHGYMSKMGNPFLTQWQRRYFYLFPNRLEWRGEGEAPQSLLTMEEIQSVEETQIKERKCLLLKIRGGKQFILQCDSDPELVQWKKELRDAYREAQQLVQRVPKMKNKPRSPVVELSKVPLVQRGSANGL
# Sequence of SGK3, construct: aa119-end (Q96BR1 119-496, looked up): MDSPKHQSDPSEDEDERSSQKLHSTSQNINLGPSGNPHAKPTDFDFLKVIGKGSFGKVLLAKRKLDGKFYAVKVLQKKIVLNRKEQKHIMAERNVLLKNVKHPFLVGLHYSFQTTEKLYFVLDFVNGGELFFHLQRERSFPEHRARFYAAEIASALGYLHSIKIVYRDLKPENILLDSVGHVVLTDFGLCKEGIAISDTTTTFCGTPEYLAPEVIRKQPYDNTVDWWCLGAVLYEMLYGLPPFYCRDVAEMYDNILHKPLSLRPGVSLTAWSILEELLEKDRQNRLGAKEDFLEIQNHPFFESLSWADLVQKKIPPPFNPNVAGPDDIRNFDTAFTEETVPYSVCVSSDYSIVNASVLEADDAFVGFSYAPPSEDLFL
# Sequence of TP53RK, construct: Full length (Q96S44 whole entry, looked up): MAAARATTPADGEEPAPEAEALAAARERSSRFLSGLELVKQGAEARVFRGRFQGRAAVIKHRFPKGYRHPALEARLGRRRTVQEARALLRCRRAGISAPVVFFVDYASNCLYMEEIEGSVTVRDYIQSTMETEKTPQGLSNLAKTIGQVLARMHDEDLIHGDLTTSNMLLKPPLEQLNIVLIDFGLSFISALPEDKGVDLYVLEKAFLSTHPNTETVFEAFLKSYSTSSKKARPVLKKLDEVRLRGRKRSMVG
# Sequence of NEK11, construct: Full length (Q8NG66 whole entry, looked up): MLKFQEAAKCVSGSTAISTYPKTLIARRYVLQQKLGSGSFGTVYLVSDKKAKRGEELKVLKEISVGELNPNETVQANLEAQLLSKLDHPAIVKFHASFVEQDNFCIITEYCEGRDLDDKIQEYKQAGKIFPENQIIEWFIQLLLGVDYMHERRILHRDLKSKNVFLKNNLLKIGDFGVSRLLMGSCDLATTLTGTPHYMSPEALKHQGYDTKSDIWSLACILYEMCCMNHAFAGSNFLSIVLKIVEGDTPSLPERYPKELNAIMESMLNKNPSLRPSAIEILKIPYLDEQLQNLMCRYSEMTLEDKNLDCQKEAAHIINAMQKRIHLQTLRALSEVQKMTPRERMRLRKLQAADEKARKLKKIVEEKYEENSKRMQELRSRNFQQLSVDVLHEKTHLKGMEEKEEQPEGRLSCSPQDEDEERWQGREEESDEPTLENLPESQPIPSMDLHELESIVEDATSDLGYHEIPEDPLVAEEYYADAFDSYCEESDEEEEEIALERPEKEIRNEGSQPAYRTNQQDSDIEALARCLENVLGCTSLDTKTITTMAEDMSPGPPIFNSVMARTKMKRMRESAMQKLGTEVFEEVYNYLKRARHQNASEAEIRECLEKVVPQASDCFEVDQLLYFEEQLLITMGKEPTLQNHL
# Sequence of NEK4, construct: Full length (P51957 whole entry, looked up): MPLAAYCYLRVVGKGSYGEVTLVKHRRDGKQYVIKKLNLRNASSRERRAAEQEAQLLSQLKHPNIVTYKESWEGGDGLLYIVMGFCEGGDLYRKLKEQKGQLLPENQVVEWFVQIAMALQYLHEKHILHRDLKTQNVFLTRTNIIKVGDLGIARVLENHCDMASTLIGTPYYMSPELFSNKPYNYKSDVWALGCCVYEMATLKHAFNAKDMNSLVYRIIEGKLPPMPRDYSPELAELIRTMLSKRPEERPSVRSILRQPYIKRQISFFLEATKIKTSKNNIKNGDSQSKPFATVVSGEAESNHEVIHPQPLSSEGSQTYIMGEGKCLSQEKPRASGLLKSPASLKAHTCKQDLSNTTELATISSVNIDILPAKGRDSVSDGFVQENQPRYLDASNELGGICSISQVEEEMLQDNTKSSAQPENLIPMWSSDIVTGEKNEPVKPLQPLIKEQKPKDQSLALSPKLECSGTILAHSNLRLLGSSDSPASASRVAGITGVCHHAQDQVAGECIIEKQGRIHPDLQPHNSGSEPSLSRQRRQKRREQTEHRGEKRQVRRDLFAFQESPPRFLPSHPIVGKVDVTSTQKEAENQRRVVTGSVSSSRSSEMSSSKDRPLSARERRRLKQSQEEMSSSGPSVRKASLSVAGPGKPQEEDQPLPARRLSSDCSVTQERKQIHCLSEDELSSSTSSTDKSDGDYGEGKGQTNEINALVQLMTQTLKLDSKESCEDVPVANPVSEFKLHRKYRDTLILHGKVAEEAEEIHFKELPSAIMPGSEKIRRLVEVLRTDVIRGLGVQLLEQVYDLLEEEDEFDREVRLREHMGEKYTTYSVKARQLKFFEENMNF
# Sequence of AURKB, construct: Full length (Q96GD4 whole entry, looked up): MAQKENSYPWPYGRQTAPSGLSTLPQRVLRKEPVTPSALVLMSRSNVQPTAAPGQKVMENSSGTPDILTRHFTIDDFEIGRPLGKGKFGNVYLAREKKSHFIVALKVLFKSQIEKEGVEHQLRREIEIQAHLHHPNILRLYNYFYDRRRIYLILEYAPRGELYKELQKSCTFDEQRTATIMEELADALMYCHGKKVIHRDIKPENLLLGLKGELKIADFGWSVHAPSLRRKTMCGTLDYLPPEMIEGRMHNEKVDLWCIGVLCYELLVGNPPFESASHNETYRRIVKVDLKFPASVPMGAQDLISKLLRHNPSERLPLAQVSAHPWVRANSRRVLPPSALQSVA
row,Substance,relative phosphorylation
1,"NEK4, construct: Full length (from UniProt P51957)",1.17
2,"AURKB, construct: Full length (from UniProt Q96GD4)",1.05
3,"SGK3, construct: aa119-end (from UniProt Q96BR1)",0.935
4,"GRK7, construct: Full length (from UniProt Q8WTQ7)",0.56

# Same assay, conditions: R fixed; at +2
row,Substance,relative phosphorylation
1,"NEK11, construct: Full length (from UniProt Q8NG66)",1.93
2,"MKNK1, construct: Full length (D165-205) (from UniProt Q9BUB5)",1.9
3,"TP53RK, construct: Full length (from UniProt Q96S44)",0.971
4,"GRK2, construct: Full length (from UniProt P25098)",0.768
5,"NEK4, construct: Full length (from UniProt P51957)",2.43
6,"AURKB, construct: Full length (from UniProt Q96GD4)",0.972
7,"SGK3, construct: aa119-end (from UniProt Q96BR1)",2.32
8,"GRK7, construct: Full length (from UniProt Q8WTQ7)",1.02

# Same assay, conditions: R fixed; at +3
row,Substance,relative phosphorylation
1,"NEK11, construct: Full length (from UniProt Q8NG66)",0.864
2,"MKNK1, construct: Full length (D165-205) (from UniProt Q9BUB5)",1.95
3,"TP53RK, construct: Full length (from UniProt Q96S44)",0.964
4,"GRK2, construct: Full length (from UniProt P25098)",0.791
5,"NEK4, construct: Full length (from UniProt P51957)",1.25
6,"AURKB, construct: Full length (from UniProt Q96GD4)",0.968
7,"SGK3, construct: aa119-end (from UniProt Q96BR1)",1.03
8,"GRK7, construct: Full length (from UniProt Q8WTQ7)",0.848

# Same assay, conditions: R fixed; at +4
row,Substance,relative phosphorylation
1,"NEK11, construct: Full length (from UniProt Q8NG66)",1.02
2,"MKNK1, construct: Full length (D165-205) (from UniProt Q9BUB5)",1.49
3,"TP53RK, construct: Full length (from UniProt Q96S44)",1.01
4,"GRK2, construct: Full length (from UniProt P25098)",0.843
5,"NEK4, construct: Full length (from UniProt P51957)",1.31
6,"AURKB, construct: Full length (from UniProt Q96GD4)",1.01
7,"SGK3, construct: aa119-end (from UniProt Q96BR1)",0.99
8,"GRK7, construct: Full length (from UniProt Q8WTQ7)",0.792

# Same assay, conditions: R fixed; at -1
row,Substance,relative phosphorylation
1,"NEK11, construct: Full length (from UniProt Q8NG66)",1.53
2,"MKNK1, construct: Full length (D165-205) (from UniProt Q9BUB5)",2.91
3,"TP53RK, construct: Full length (from UniProt Q96S44)",0.857
4,"GRK2, construct: Full length (from UniProt P25098)",0.979
5,"NEK4, construct: Full length (from UniProt P51957)",1.77
6,"AURKB, construct: Full length (from UniProt Q96GD4)",2.98
7,"SGK3, construct: aa119-end (from UniProt Q96BR1)",2.23
8,"GRK7, construct: Full length (from UniProt Q8WTQ7)",0.891

# Same assay, conditions: R fixed; at -2
row,Substance,relative phosphorylation
1,"NEK11, construct: Full length (from UniProt Q8NG66)",0.991
2,"MKNK1, construct: Full length (D165-205) (from UniProt Q9BUB5)",5.62
3,"TP53RK, construct: Full length (from UniProt Q96S44)",0.853
4,"GRK2, construct: Full length (from UniProt P25098)",0.974
5,"NEK4, construct: Full length (from UniProt P51957)",1.07
6,"AURKB, construct: Full length (from UniProt Q96GD4)",10.2
7,"SGK3, construct: aa119-end (from UniProt Q96BR1)",4.89
8,"GRK7, construct: Full length (from UniProt Q8WTQ7)",0.762

# Same assay, conditions: R fixed; at -3
row,Substance,relative phosphorylation
1,"NEK11, construct: Full length (from UniProt Q8NG66)",1.2
2,"MKNK1, construct: Full length (D165-205) (from UniProt Q9BUB5)",3.5
3,"TP53RK, construct: Full length (from UniProt Q96S44)",1
4,"GRK2, construct: Full length (from UniProt P25098)",1.43
5,"NEK4, construct: Full length (from UniProt P51957)",0.953
6,"AURKB, construct: Full length (from UniProt Q96GD4)",4.37
7,"SGK3, construct: aa119-end (from UniProt Q96BR1)",6.97
8,"GRK7, construct: Full length (from UniProt Q8WTQ7)",1.58

# Same assay, conditions: R fixed; at -4
row,Substance,relative phosphorylation
1,"NEK11, construct: Full length (from UniProt Q8NG66)",1.12
2,"MKNK1, construct: Full length (D165-205) (from UniProt Q9BUB5)",2.25
3,"TP53RK, construct: Full length (from UniProt Q96S44)",1.03
4,"GRK2, construct: Full length (from UniProt P25098)",0.998
5,"NEK4, construct: Full length (from UniProt P51957)",1.04
6,"AURKB, construct: Full length (from UniProt Q96GD4)",2.72
7,"SGK3, construct: aa119-end (from UniProt Q96BR1)",2.32
8,"GRK7, construct: Full length (from UniProt Q8WTQ7)",0.798

# Same assay, conditions: R fixed; at -5
row,Substance,relative phosphorylation
1,"NEK11, construct: Full length (from UniProt Q8NG66)",1.23
2,"MKNK1, construct: Full length (D165-205) (from UniProt Q9BUB5)",1.66
3,"TP53RK, construct: Full length (from UniProt Q96S44)",1.12
4,"GRK2, construct: Full length (from UniProt P25098)",1.04
5,"NEK4, construct: Full length (from UniProt P51957)",1.32
6,"AURKB, construct: Full length (from UniProt Q96GD4)",1.9
7,"SGK3, construct: aa119-end (from UniProt Q96BR1)",2.79
8,"GRK7, construct: Full length (from UniProt Q8WTQ7)",0.955

# Same assay, conditions: V fixed; at +1
row,Substance,relative phosphorylation
1,"NEK11, construct: Full length (from UniProt Q8NG66)",0.926
2,"MKNK1, construct: Full length (D165-205) (from UniProt Q9BUB5)",0.995
3,"TP53RK, construct: Full length (from UniProt Q96S44)",0.917
4,"GRK2, construct: Full length (from UniProt P25098)",1.15
5,"NEK4, construct: Full length (from UniProt P51957)",0.929
6,"AURKB, construct: Full length (from UniProt Q96GD4)",0.82
7,"SGK3, construct: aa119-end (from UniProt Q96BR1)",1.5
8,"GRK7, construct: Full length (from UniProt Q8WTQ7)",0.654

# Same assay, conditions: V fixed; at +2
row,Substance,relative phosphorylation
1,"NEK11, construct: Full length (from UniProt Q8NG66)",0.566
2,"MKNK1, construct: Full length (D165-205) (from UniProt Q9BUB5)",0.781
3,"TP53RK, construct: Full length (from UniProt Q96S44)",0.885
4,"GRK2, construct: Full length (from UniProt P25098)",1.37
5,"NEK4, construct: Full length (from UniProt P51957)",0.838
6,"AURKB, construct: Full length (from UniProt Q96GD4)",0.897
7,"SGK3, construct: aa119-end (from UniProt Q96BR1)",1.05
8,"GRK7, construct: Full length (from UniProt Q8WTQ7)",1.07

# Same assay, conditions: V fixed; at +3
row,Substance,relative phosphorylation
1,"NEK11, construct: Full length (from UniProt Q8NG66)",0.965
2,"MKNK1, construct: Full length (D165-205) (from UniProt Q9BUB5)",0.506
